Laboratory results: the nanobody polyreactivity screen of Harvey et al. (2022)

Assay: yeast display, Sf9 membrane polyspecificity reagent, FACS + sequencing; frameworks hold sequencing errors
How it was run: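 Nanobodies came from a synthetic yeast display library in Saccharomyces cerevisiae BJ5465, induced with galactose for 36–48 hours and stained for 1 hour at 4 °C with 10% biotinylated, detergent-solubilized Sf9 membrane reagent. Cells were enriched on streptavidin microbeads and then FACS-sorted, with low and high (top ~1%) gates set on anti-HA fluorescence for expression and streptavidin fluorescence for reagent binding. Each polyreactivity label reflects the gate a clone came from. Genes were amplified by colony PCR, sequenced by MiSeq 2 × 250 and filtered by CDR length.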

**Q.** For “QVHLVESGGGLVQAGGSLRLSCAASGLTFRYYAMGWYRPAPGKERELVAAISWSGGSTYYADSVKGRFTISRDNAKNTVYLQMNSQKPEDTAVYDCNTVGRSSSLSVFLIGYGYWGQATQVTVSS”, which “polyreactivity (PSR sort gate)” value is on record?
**A.** high polyreactivity

**Q.** Which “polyreactivity (PSR sort gate)” value does the source give for “QVQLVESGGGLVQAGGSLRLSCASSGRTFSYYAMGWYRQAPGKERELVAAISTSGGSTYYADSVKGRFTISRDNAKNTVYLQMNSLKPEDTAVYYWAASPYLRFLYGGFGYWGQGTEVTVSS” here?
**A.** high polyreactivity

**Q.** For “QVQLVESGGGLVQAGGSLRLSCAASGRISKRYTMGWYRQAPGKERELVAAITNSGGTTYYADSVKGRFTISRDNAKNTVYLQMNSLKPEDTAVYYCNKPYGAETAHREFDYWGQGTQVTVSS”, which “polyreactivity (PSR sort gate)” value is on record?
**A.** low polyreactivity

**Q.** With “QVQLVESGGGLVQAGGSLRLSCAASGRTFRYYAMGWYRQAPGKERELVAAIRRGGSTTYADSVKVRFTISRDNAKNTVYLQMNSLKPEDTAVYYCAARYPGTRGDGYWGQGTQVTVSS” as the sequence, how does the “polyreactivity (PSR sort gate)” value read?
**A.** high polyreactivity

**Q.** With “QVQLVESGGGLVQAGGSLRLSCAASGRTFPYNAMGWYRQAPGKERELVAAITWRGGRTYYADSVKGRFTISRDYAKNTVYLQMNSLKPEDSAVYYCATVRVSRVRPFWNVWRSNYWGQGTQVTVSS” as the sequence, how does the “polyreactivity (PSR sort gate)” value read?
**A.** high polyreactivity

**Q.** With “QVQLVESGGGLVQAGGSLRLSCAASGFTFSTYAMGWYRQAPGKERELVAAISGSGGRTYYADSVKGRFKISRDNAKNTVYLQMNSLKPEDTAVYYCAALTYSTVLGFDYWGQGTQVTVSS” as the sequence, how does the “polyreactivity (PSR sort gate)” value read?
**A.** high polyreactivity

**Q.** Which “polyreactivity (PSR sort gate)” value does the source give for “QVQLVESGGGLVQAGGSLRLSCAASGFTFVYNAMGWYRQAPGKERELVASITQSGDITYYADSVKGRFTISRDNAKNTVYLQMNSLKPEDTAVYYCNKFQGTGDRFDSWGQGTQVTVSS” here?
**A.** low polyreactivity

**Q.** With “QVQLVESGGGLVQAGGSLRLSCAASGGNFRYYAMGWYRQAPGKERELVAAITRGGRTSYADSVKGRFTISRDNAKNTVYLQMNSLKPEDSAVYYCNAKRPYQEHNSYGYWGQGSQVTVSS” as the sequence, how does the “polyreactivity (PSR sort gate)” value read?
**A.** high polyreactivity

**Q.** With “QVQLVESGGGLVQAGGSLRLSCAASGSTFKEYTMGWYRQAPAKERELVAASSKSGDSTYYADSVKGRFTISRDNAKNTVYLQMNSLKPEDTAVYYCNKPTWYTIYDYWGQGTQVTVSS” as the sequence, how does the “polyreactivity (PSR sort gate)” value read?
**A.** low polyreactivity

**Q.** With “LVQLVESGGRLVQAGGSLRLSCAASGNIFWYAMGWYRQAPGKERELVAAITYRGSTTYFAYSVKGRVTISRDKAKNTVYLQMNSLHPEDTAVYYCAARASYTRRHVGRPYDYWGQGTQVTVSS” as the sequence, how does the “polyreactivity (PSR sort gate)” value read?
**A.** high polyreactivity

**Q.** For “QVQLVESGGGLVQAGGSLRLSCAASGITFKRYAMGWYRPAPGKERELVAAITISAGSTYYADSVKGRFTLSRDNAKNTVYLQMNSLKPEDTAVYYCAAESYGSWYYYWGQGTQVTVSS”, which “polyreactivity (PSR sort gate)” value is on record?
**A.** high polyreactivity

**Q.** For “QVQLVESGGGLVQAGGSLRLICAASGFTFTGNAMGWYRQAPGKERELVAAITRGGSTKYADSVKGRITISRDNAMHTVYLQMNSLKPEDTAVYYCAAGVRYYRYYYWGQGTQVTVSS”, which “polyreactivity (PSR sort gate)” value is on record?
**A.** high polyreactivity

**Q.** With “QVQLVESGGGLDQAGGSLRLSCAASGRTFGRYAMGWYRKAPGTERELVAAISWSGGSTYYADSVKGRFTISRDNAKNTVYLQMNSLKPEDTAVYYCAAYEHVYEYDYWGQGTQVTVSS” as the sequence, how does the “polyreactivity (PSR sort gate)” value read?
**A.** low polyreactivity

**Q.** With “QVQIVESGGGLVQAGGSLRLRCAASGRIIYKNAMGWYRQAPGKERELVAAITTSGGSTYYADSVKGRFTISRDNSKNTVYLEMNSLKPEDTAVYYCATRGHYRQTINYWGQGTQVTVSS” as the sequence, how does the “polyreactivity (PSR sort gate)” value read?
**A.** high polyreactivity

**Q.** With “QVQLVESGGGLVQAGGTLRLSCAASGLTFARYAMGWYRQAPGKERELVAGIDSTGGTTYYADSVKGRFTISRDNAKNTFYLQMISLIPEDTAVYYCNTGGTFLDWVRSPFGFGYWGQGTQVTVSS” as the sequence, how does the “polyreactivity (PSR sort gate)” value read?
**A.** low polyreactivity

**Q.** With “QVQLVETGGGLVQAGGSLRLSCAASGSIFVTNAMGWYRQPPGKEREFVAAISSSDDSTYYADSVKGRFTISRDNAKNTVYLQMHSLKPEDTAVYYCASDWLFNIIAYDYGLDSWGQGTQVTVSS” as the sequence, how does the “polyreactivity (PSR sort gate)” value read?
**A.** low polyreactivity

**Q.** For “QVQLVESGGGLVQAGASLRLSCAASGRNFHTYGMGWYRQAPGKESELVAAITWTGGSTYYADSVKGRFTISRDNAKNTVYLQMNSLKPEDTAVYYCAADYPRDIIGSMDYWGQGTQVSVSS”, which “polyreactivity (PSR sort gate)” value is on record?
**A.** low polyreactivity

**Q.** For “QVQLVESGGGLVQAGGSLRLSCADSGRTFSYNTMGWYRQATGKERELVARITWGGGSTYYADSVKGRFTISRDNAKNTVYLQMNSLKPEDTAVYYCNADLRELSPWYWYSGEMDYWGQGTQVTVSS”, which “polyreactivity (PSR sort gate)” value is on record?
**A.** low polyreactivity

**Q.** With “QVQLVESGGGLVQAGGSLRISCAASGSIFDYYAMGWYIQAPGKERELVAAISWSGGSTYYADSVKGRFTISRDNAKNTVYLQMNSLKPVDTAVYYCAAEYYGGEFDYWGQGTQVTVSS” as the sequence, how does the “polyreactivity (PSR sort gate)” value read?
**A.** low polyreactivity

**Q.** With “QVQLVESGGGLVQAGGSLRLSCAASGITFSYYAMGWYRKAARKERELVAAINGGGSRTYYADSVKGRFTISRDNAKNTVYLQMNSLKPEETAVYYCAAYSGQARGYDYWGQGTQVTVSS” as the sequence, how does the “polyreactivity (PSR sort gate)” value read?
**A.** high polyreactivity

**Q.** With “QVQLVELGGGLVQAGGSLRLSCAASGSTFEVYAMGWYRQAPGKERELVAVINVSDGSTYYADSVKGRFTISRDNAKNTVYLQMNSLKPEDTAVYYCAAYRKGKLRMEYWGQGTQVTVSS” as the sequence, how does the “polyreactivity (PSR sort gate)” value read?
**A.** low polyreactivity

**Q.** With “QVQLVESAGGLVQAGGSLRLSCAASGSTFTYKGMGWYRQAPGKERELVASISSRGGSTYYADSVKGRFTISRDNAKNTVYLQMNSLKPDDTAVYYCAAVARARARTPWLGRGYWGQVTQVTVSS” as the sequence, how does the “polyreactivity (PSR sort gate)” value read?
**A.** high polyreactivity

**Q.** Which “polyreactivity (PSR sort gate)” value does the source give for “QVQLVESGRGLVQAGGSLRLSCAASGRTLAFNAMGWYRQAPGKERELVAVIRNGTSTNYADSVKGRFTISRDNAKNTVYLQMNSLKPEDTAVYYCNVPYYLPSYLSGYDYWGQGTQVTVSS” here?
**A.** low polyreactivity

**Q.** For “QVQLVESGGGLVQAGGSLRLSCAATGSIFYNYAMGWYRQAPGKERELVAAINRSGGITFYADSVKGRFTISRDNAKNTVYLQMNSLKPEDTAVYYCAAEEVPYDRDMDYWGQGTQVTVSS”, which “polyreactivity (PSR sort gate)” value is on record?
**A.** low polyreactivity

**Q.** With “QVQLVESGGGLVQAGGSLRLSCAASGRTFVYNAMGWYRQAPGKERELVAAISSDGASTYYADSVKGRFTISRDNAKNTVYLQMNSLKPEDTAVYYCAADFSYYSYEHYYWVQGTQVTVSS” as the sequence, how does the “polyreactivity (PSR sort gate)” value read?
**A.** low polyreactivity

**Q.** Which “polyreactivity (PSR sort gate)” value does the source give for “QVQLVESGGGLVQAGGSLRLSCAASGFTFIQYAMGWYRPAPGKERELVAAMTWSGGRTYYADSVKGRFTISRDNAKNTVYLHMNSLKPEDTAVYYCAKPFNIWGQGTKVTVSS” here?
**A.** high polyreactivity

**Q.** With “QVQLEESGGGLVQAGGSLRLSCAASGRIFHKNAMGWYRQAPGKEREFVATISSRGGSTYYADSVKGRFTISRDNSKNTVYLQMNSLKPEDSAVYYCAAGWYRNDWGQRLHTYYYWGQGTQVTVSS” as the sequence, how does the “polyreactivity (PSR sort gate)” value read?
**A.** high polyreactivity

**Q.** For “QVQLVESGRGLFQAGGSLRLSCAASGFTGSYAMGWYRQAPGKVREFVAAISYRGSSTYYADSVKGRFTISRDNAKNTVYLQMNSLKPEDTAVYYCNSVHYVLYGDYDYWGQGTQVTVSS”, which “polyreactivity (PSR sort gate)” value is on record?
**A.** high polyreactivity

**Q.** With “QVQLVESGGGLVQAGGSLRLICAASGITLDGNAMGWYRQAPGKERELVAAITSGGGTNYADSVKGRFTISRDNAKNTVYLQMNSLKPEDTAVYYCAAEGYVGYYDYDYWGQGTQVTVSS” as the sequence, how does the “polyreactivity (PSR sort gate)” value read?
**A.** low polyreactivity

**Q.** Which “polyreactivity (PSR sort gate)” value does the source give for “QVQLEESGGGLVQAGGSLRLSCAASGRTFYGKAMGWYRNAPGKEWEFVASISYSGTTTYYADSVKGRFTISRDNAKNTVYLKMNSLKPEDTAVYYCAVESYPTDYGPRFGSWGQGTQVTVSS” here?
**A.** low polyreactivity
